{
  "source": "paper PMC2645672",
  "about": "“Mechanism of Neuronal versus Endothelial Cell Uptake of Alzheimer's Disease Amyloid β Protein” (PLoS ONE, 2009)",
  "key": {"[1]": {"system": "wild type (WT) mouse brain slices", "conditions": "cited from earlier work", "method": "The uptake of ^125I-Aβ40 in WT mouse brain slices at 4 or 37°C was determined following 15 min incubation in oxygenated KRB containing 5–900 ng/ml (0.02–3.5 µCi/ml) concentrations of ^125I-Aβ40. The 15 min incubation time was selected based on our earlier observations that ^125I-Aβ40 uptake in the brain slices was linear up to 15 mi ..."}, "[2]": {"system": "differentiated PC12 cells", "conditions": "cited from earlier work"}, "[3]": {"system": "differentiated PC12 cells"}, "[4]": {"system": "bovine brain microvascular endothelial (BBME) cells", "assay": "Cellular uptake by flow cytometry in BBME cells", "conditions": "F-Aβ40 and AF633-Trf simultaneously, cells trypsinized", "method": "Bovine brain microvascular endothelial (BBME) cells were obtained frozen from Cell Applications Inc. (San Diego, CA) and were grown in 75 cm^2 cell culture flasks coated with collagen. The growth medium was made of equal parts DMEM and F-12 Ham nutrient mix containing amphotericin B (2.5 µg/ml), HEPES (10 mM), donor horse serum (10%), penicillin (100 units/ml), and gentamicin sulphate (15 µm/ml). After reaching 70–80% confluency, the cells were harvested, seeded (80,000 cells/cm^2) on six-well cell culture plates coated with 0.01% rat tail collagen, and grown under 5% CO2 at 37°C.\n(§1) In addition, flow cytometry studies were conducted to quantify the uptake of F-Aβ40 or F-Aβ42 and AF633-Trf by PC12 cells and BBME cells at 4°C or under ATP depleted conditions. At the end of these flow cytometry experiments, the cells were washed three times with ice-cold PBS, trypsinized, and centrifuged at 2000 ×g. The cell pellet was washed with and re-suspended in ice cold PBS, and analyzed.\n(§2) FACScan (Becton Dickinson FACS canto, San Jose, CA) was equipped with 488 nm laser and 530/30 band-pass filter to analyze F-Aβ40 or F-Aβ42 as well as 633 nm laser and 660/20 band-pass filter to analyze AF633-Trf. […] The cellular fluorescence from this cell population was presented as histograms along with relevant statistical values such as geometric mean and coefficient of variance."}, "[5]": {"system": "differentiated PC12 cells", "assay": "Cellular uptake by flow cytometry in differentiated PC12 cells", "conditions": "for Uptake at 4°C versus 37°C (histograms of cellular fluorescence), F-Aβ42 experiment: 15 µg/ml F-Aβ42 and 20 µg/ml AF633-Trf, 30 min, cells trypsinized", "method": "Rat PC12 cells were plated on glass coverslips or coverslip-bottomed dishes and cultured in DMEM supplemented with: 10% fetal bovine serum, 5% horse serum, 4 mM glutamine, 200 units/ml penicillin, 200 µg/ml streptomycin, and 100 ng/ml nerve growth factor (NGF) (Harlan, Indianapolis, IN) at 37°C under 5% CO2. Uptake studies were conducted 5–7 days after plating, when the cells were well differentiated and the neurite growth was prominent.\nThe PC12 cells were dispersed in growth medium containing 100 ng/ml NGF (Harlan Bioproducts, Indianapolis, IN) and seeded at a density of 50,000/well in 6-well plates. On the seventh day, following sets of experiments were conducted on the differentiated PC-12 cells:\n• To determine the linearity of F-Aβ40 uptake, PC-12 cells were pre-incubated in serum free DMEM for 30 min at 37°C and then incubated with DMEM solution containing 3–15 µg/ml F-Aβ40 for 30 min at 37°C. • To determine the saturability of F-Aβ40 uptake, the PC-12 cells were pre-incubated in 150 µg/ml of unlabeled Aβ40 for 30 min at 37°C, followed by a 30 min incubation in the same solution spiked with 15 µg/ml F-Aβ40.\nAt the end of these experiments, the cells were dissociated with trypsin and centrifuged at 2000 ×g. The cell pellet was washed with and re-suspended in ice cold PBS and analyzed by flow cytometry.\nTo examine the effect of temperature and cellular energy on the internalization of F-Aβ40 and F-Aβ42, the uptake studies were conducted at 4°C or under ATP depleted conditions. In the studies conducted at 4°C, steps outlined previously to investigate clathrin mediated endocytosis were repeated, but at 4°C. In ATP depletion studies, the PC12 cells or RPH neurons were pre-incubated for 30 min in glucose free DMEM containing 0.1% sodium azide and 50 mM 2-deoxy-D-glucose followed by the incubation with glucose free DMEM containing 20 µg/ml AF633-Trf and 15 µg/ml F-Aβ40 for 30 min at 37°C.\nas §1, §2"}, "[6]": {"system": "differentiated PC12 cells", "assay": "Cellular uptake and localization by microscopy in differentiated PC12 cells", "conditions": "F-Aβ40 and AF633-Trf co-incubated, confocal"}},
  "data": [
    {"substance": "125I-Aβ40: human Aβ40 labeled with 125I using the chloramine-T procedure", "values": [
      {"measurement": "Time course of uptake in brain slices", "setting": "[1]", "value": "linear up to 15 min"},
      {"measurement": "Dependence of internalization by differentiated PC12 cells on donor concentration", "setting": "[2]", "value": "linearly dependent upon the donor concentration"},
      {"measurement": "Internalization by differentiated PC12 cells at 4°C", "setting": "[2]", "value": "internalized even at 4 °C"}
    ]},
    {"substance": "AF633-Trf: Alexa Fluor 633 labeled transferrin, a clathrin mediated endocytosis marker [reference compound]", "values": [
      {"measurement": "Uptake in ATP depleted cells versus normal cells (microscopy)", "setting": "[3]", "value": "no detectable"},
      {"measurement": "Cellular uptake in BBME cells at 4°C compared to 37°C (fluorescence intensities)", "setting": "[4]", "value": "decreased significantly"},
      {"measurement": "Uptake at 4°C versus 37°C (histograms of cellular fluorescence), F-Aβ42 experiment", "setting": "[5]", "value": "significantly lower"},
      {"measurement": "Cellular location after 15 min incubation", "setting": "[6]", "value": "juxta-nuclear region"}
    ]},
    {"substance": "F-Aβ40: fluorescein labeled human Aβ40", "values": [
      {"measurement": "Uptake in cells treated with filipin, inhibitor of caveolae mediated endocytosis", "setting": "[3]", "value": "not significantly affected"},
      {"measurement": "Cellular uptake in BBME cells at 4°C compared to 37°C (fluorescence intensities)", "setting": "[4]", "value": "decreased significantly"},
      {"measurement": "Fluorescence intensity on co-incubation with unlabeled Aβ40 compared to F-Aβ40 alone (saturability)", "setting": "[5]; 150 µg/ml unlabeled Aβ40 + 15 µg/ml F-Aβ40 vs 15 µg/ml F-Aβ40 alone, 37°C", "value": "decreased"},
      {"measurement": "Dependence of accumulation on donor concentration", "setting": "[5]; donor concentrations 3-15 µg/ml, 30 min at 37°C", "value": "linear with the donor concentrations"},
      {"measurement": "Cellular location after 15 min incubation", "setting": "[6]", "value": "mainly confined to the cell membrane"},
      {"measurement": "Cellular location at the end of 45 min incubation", "setting": "[6]; 45 min", "value": "appeared to move into the cytosol"},
      {"measurement": "Intensity in the cells by the end of 60 min incubation", "setting": "[6]; 60 min", "value": "increased substantially"}
    ]},
    {"substance": "F-Aβ42: fluorescein labeled Aβ42", "values": [
      {"measurement": "Uptake at 4°C versus 37°C (histograms of cellular fluorescence), F-Aβ42 experiment", "setting": "[5]", "value": "not significantly different"}
    ]}
  ]
}
